Laboratory results: paper doi:10.1101/2025.09.02.673761 (bioRxiv, 2025)

Biological target: GFP-tagged holo-CPC (Chromosomal Passenger Complex: INCENP, GFP-Aurora B, Borealin, Survivin) (human, UniProt Q9NQS7;Q96GD4;Q53HL2;O15392)
Assay: pull-down

Sequence of GFP-tagged holo-CPC (Chromosomal Passenger Complex: INCENP, GFP-Aurora B, Borealin, Survivin) (Q9NQS7 whole entry, chain 1 of 4): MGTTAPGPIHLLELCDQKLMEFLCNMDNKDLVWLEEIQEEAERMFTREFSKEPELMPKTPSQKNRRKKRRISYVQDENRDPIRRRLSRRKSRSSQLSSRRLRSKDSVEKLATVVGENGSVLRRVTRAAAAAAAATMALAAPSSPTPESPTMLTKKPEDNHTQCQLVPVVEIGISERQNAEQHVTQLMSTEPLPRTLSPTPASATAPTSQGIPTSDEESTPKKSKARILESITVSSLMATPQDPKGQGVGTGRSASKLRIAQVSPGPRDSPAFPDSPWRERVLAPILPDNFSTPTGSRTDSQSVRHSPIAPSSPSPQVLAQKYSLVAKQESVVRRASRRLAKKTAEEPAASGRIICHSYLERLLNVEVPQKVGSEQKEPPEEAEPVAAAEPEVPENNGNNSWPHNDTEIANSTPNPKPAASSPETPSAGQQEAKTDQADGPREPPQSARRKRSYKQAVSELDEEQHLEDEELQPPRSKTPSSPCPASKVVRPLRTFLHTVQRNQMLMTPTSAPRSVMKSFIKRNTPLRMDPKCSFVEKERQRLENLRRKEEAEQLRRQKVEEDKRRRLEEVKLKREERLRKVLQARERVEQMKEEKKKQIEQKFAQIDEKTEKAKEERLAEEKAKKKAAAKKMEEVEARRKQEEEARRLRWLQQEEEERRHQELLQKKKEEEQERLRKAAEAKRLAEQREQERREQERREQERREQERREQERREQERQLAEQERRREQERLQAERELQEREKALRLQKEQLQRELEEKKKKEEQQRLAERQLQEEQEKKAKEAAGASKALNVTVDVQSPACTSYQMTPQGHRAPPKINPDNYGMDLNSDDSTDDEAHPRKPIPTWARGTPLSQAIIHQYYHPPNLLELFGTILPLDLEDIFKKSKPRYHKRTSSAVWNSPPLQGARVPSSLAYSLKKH
Sequence of GFP-tagged holo-CPC (Chromosomal Passenger Complex: INCENP, GFP-Aurora B, Borealin, Survivin) (Q96GD4 whole entry, chain 2 of 4): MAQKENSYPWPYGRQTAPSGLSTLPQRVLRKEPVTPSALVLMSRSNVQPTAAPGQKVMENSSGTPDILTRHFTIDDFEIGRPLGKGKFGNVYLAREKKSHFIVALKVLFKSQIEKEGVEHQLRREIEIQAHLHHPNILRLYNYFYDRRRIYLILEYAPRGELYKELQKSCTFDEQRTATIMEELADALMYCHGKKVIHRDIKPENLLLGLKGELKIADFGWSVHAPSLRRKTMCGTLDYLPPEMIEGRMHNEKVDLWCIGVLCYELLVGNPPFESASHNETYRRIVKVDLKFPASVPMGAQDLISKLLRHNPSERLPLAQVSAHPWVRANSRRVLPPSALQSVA
Sequence of GFP-tagged holo-CPC (Chromosomal Passenger Complex: INCENP, GFP-Aurora B, Borealin, Survivin) (Q53HL2 whole entry, chain 3 of 4): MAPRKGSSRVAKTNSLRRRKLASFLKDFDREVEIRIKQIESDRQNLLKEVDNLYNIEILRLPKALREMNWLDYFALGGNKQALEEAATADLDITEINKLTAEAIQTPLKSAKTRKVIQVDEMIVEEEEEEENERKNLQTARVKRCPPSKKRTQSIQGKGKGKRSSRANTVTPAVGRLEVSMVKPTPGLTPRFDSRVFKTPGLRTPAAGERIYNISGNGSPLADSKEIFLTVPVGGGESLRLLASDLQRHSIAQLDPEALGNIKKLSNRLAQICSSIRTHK
Sequence of GFP-tagged holo-CPC (Chromosomal Passenger Complex: INCENP, GFP-Aurora B, Borealin, Survivin) (O15392 whole entry, chain 4 of 4): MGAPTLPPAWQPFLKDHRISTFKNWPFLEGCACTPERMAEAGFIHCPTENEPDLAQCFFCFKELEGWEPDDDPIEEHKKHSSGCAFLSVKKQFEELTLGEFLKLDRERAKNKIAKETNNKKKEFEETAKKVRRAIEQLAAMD

B1: KIF20A (kinesin-6 motor), unlabeled (natural protein)
chain: MSQGILSPPAGLLSDDDVVVSPMFESTAADLGSVVRKNLLSDCSVVSTSLEDKQQVPSEDSMEKVKVYLRVRPLLPSELERQEDQGCVRIENVETLVLQAPKDSFALKSNERGIGQATHRFTFSQIFGPEVGQASFFNLTVKEMVKDVLKGQNWLIYTYGVTNSGKTHTIQGTIKDGGILPRSLALIFNSLQGQLHPTPDLKPLLSNEVIWLDSKQIRQEEMKKLSLLNGGLQEEELSTSLKRSVYIESRIGTSTSFDSGIAGLSSISQCTSSSQLDETSHRWAQPDTAPLPVPANIRFSIWISFFEIYNELLYDLLEPPSQQRKRQTLRLCEDQNGNPYVKDLNWIHVQDAEEAWKLLKVGRKNQSFASTHLNQNSSRSHSIFSIRILHLQGEGDIVPKISELSLCDLAGSERCKDQKSGERLKEAGNINTSLHTLGRCIAALRQNQQNRSKQNLVPFRDSKLTRVFQGFFTGRGRSCMIVNVNPCASTYDETLHVAKFSAIASQLVHAPPMQLGFPSLHSFIKEHSLQVSPSLEKGAKADTGLDDDIENEADISMYGKEELLQVVEAMKTLLLKERQEKLQLEMHLRDEICNEMVEQMQQREQWCSEHLDTQKELLEEMYEEKLNILKESLTSFYQEEIQERDEKIEELEALLQEARQQSVAHQQSGSELALRRSQRLAASASTQQLQEVKAKLQQCKAELNSTTEELHKYQKMLEPPPSAKPFTIDVDKKLEEGQKNIRLLRTELQKLGESLQSAERACCHSTGAGKLRQALTTCDDILIKQDQTLAELQNNMVLVKLDLRKKAACIAEQYHTVLKLQGQVSAKKRLGTNQENQQPNQQPPGKKPFLRNLLPRTPTCQSSTDCSPYARILRSRRSPLLKSGPFGKKY
B1: binds.
